The values that follow come from patent US20120108492A1, “LIGAND-SPECIFIC NON-ANTIBODY COMPOUNDS THAT INHIBIT CR2 ACTIVATION AND METHODS OF USE THEREOF” (The Regents of the University of Colorado, priority 2008, published 2012).

Read-outs that look alike come from different tables or passages of the source.

The target in assay [1] is T1, wild-type MBP-CR2 SCR1-2 (human), P20023.
T1 chain: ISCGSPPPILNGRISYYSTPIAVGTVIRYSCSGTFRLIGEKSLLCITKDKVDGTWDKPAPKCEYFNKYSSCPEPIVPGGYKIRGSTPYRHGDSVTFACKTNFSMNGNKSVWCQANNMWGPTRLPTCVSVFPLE
As to the kind of experiment: competition ELISA: C3d on plate, MBP-CR2 SCR1-2 with increasing peptide, ⅓×PBS. Background: In an ELISA, binding on a coated surface is turned into a signal by an enzyme label.

For assay [2] the target is unchanged.

Consider ISTSNPRAASTA (modifications not checked) [peptide C3dp2.1], for which the half-maximal inhibitory concentration (IC50) (commonly the concentration that inhibits the measured activity by half) in assay [1] was 150 µM. With APQALSSQYSRT (modifications not checked) [peptide C3dp1.1], the IC50 in assay [1] is 70 µM.

For APQHLSSQYSRT (modifications not checked) [peptide C3dp1], the IC50 in assay [1] was 100 µM. Molecule DPKNHVH (modifications not checked) [peptide C3dcp1.1] yielded an IC50 in assay [1] of 95 µM. Molecule CSEGSLKGC (modifications not checked) [peptide EBV gp350 cp1] gave an IC50 in assay [2] of 150 µM.

Consider TRSYQSSLHQPA (modifications not checked) [peptide C3dp1.2], for which the half-maximal inhibitory concentration (IC50) in assay [1] amounted to 70 µM. Still for that read-out and setting: with ISTSNPRH (modifications not checked) [peptide C3dp2.2] the figure was 190 µM; with APAHLSSQ (modifications not checked) [control peptide], 700 µM; with APQHLSSQ (modifications not checked) [peptide C3dp1.3], 40 µM. Still for that read-out and setting: with IATANPRHHSTA (modifications not checked) [peptide C3dp2.3] the figure was 160 µM; with ISTSNPRHHSTA (modifications not checked) [peptide C3dp2], 450 µM.
